The experiment has as its target XPO1 protein, recombinant (UniProt O14980 1-1071). Briefly: ITC. A general note: ITC needs no label: the signal is the heat of the interaction.

The text below walks through data of paper PMC11618752 (2024).

As usually defined, the Kd is the free concentration of one partner at which half of the binding sites on the other are occupied at equilibrium, for simple one-to-one binding.

Chain of XPO1 protein, recombinant (O14980 whole entry): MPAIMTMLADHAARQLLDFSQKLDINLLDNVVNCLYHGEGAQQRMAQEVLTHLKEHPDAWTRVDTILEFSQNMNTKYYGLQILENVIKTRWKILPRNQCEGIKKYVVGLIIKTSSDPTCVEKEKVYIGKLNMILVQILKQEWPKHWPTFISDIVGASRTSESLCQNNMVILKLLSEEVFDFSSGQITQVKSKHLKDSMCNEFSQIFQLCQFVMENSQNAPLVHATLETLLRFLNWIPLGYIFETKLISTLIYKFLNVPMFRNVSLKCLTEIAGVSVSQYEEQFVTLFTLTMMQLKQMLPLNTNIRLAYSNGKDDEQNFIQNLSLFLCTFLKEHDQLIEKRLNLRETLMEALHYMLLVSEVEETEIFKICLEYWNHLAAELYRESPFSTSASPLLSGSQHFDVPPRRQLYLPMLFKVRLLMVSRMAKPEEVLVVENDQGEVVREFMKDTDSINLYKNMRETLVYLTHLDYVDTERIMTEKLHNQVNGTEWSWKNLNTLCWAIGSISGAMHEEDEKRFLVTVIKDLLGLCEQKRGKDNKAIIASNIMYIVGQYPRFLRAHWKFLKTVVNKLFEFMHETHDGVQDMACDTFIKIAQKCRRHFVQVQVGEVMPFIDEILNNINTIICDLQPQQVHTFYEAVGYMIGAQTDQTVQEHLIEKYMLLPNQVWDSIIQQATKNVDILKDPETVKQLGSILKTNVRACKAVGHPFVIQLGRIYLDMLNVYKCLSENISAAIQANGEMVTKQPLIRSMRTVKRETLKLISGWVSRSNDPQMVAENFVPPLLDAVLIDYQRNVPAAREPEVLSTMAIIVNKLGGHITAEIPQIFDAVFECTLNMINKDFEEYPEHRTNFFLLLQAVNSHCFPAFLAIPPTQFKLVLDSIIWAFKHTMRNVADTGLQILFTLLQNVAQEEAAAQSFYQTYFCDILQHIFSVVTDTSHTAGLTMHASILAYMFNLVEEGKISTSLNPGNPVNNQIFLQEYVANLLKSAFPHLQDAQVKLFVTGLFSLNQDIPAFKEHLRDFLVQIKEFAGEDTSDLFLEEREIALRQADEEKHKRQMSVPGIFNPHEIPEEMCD

B1: NES peptide (173–182 aa of TIRR) (peptide)
peptide: LLFALKVLNM
With B1, the equilibrium dissociation constant (Kd) is 45 µM.
